± gives the uncertainty stated by the source.

One series can be described thus: amyloid nucleation score (Sup35N fusion, yeast selection) (log enrichment); library NNK1; higher = more nucleation; inactive = no reads after selection. An outline of the steps: (§1)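 Using DiMSum, nucleation scores were taken as the log enrichment of output over input reads, centred on the mode score of non-aggregating sequences. The input and output reads came from Illumina sequencing of plasmid inserts, with sequences under 100 input reads excluded. The yeast were psi-negative, expressed Sup35N fused to peptides of 20 random codons, were induced with 100 μM copper sulfate for 24 hours, and were grown 7 days at 30°C on medium lacking adenine and uracil.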
For the substance AALVCPRFLTSKANFVPSKG, the amyloid nucleation score result was “inactive”.
Same read-out and setting: the same measure for AARVGVVVF: 0.065 ± 0.41; for AASTNSGR: 0.305 ± 0.68; for AASVSCNLQQKAKRVAFFLM: 0.726 ± 1.1.
ACSPSLVL displayed an amyloid nucleation score of 1.52 ± 0.84.
Still for that read-out and setting: the same measure for ADCPLCGTYNLSYCMVRLDI: 0.349 ± 0.28; for ADNFLFWHVIEYKENLDHAR: -1.32 ± 1.1.
Same read-out and setting: the same measure for AEAKN: -1.01 ± 0.9; for AEHNYVRRELAGEPNLV: 3.11 ± 0.095; for AEVTDMGDLFSERMLSVVQI: -0.499 ± 1.9.
Same read-out and setting: the value for AFDQGGIYTVPSGKNFPCTL was -0.186 ± 0.4; that for AFGADKTRYMSVFTKCVS was 0.253 ± 0.37.
In the case of AFIFMSTATDDLFFAINL, the amyloid nucleation score was -0.139 ± 0.35.
On the same count and under the same terms, the same measure for AFPTIAYMIWVFVDVQLCSE: 1.25 ± 0.58.
On the same count and under the same terms, the same measure for AFRRCTKSFIL: -0.427 ± 1.9; for AGFVYFPMYNKLMELFTRGI: 1.29 ± 0.66.
Same read-out and setting: the same measure for AGIQIGWVIHSLCSSELRLS: -0.875 ± 0.69; for AGLWTLRQMWWFTWGSIDII: “inactive”.
Turning to AGSLAM, the amyloid nucleation score is -0.246 ± 0.48.

The next series can be described thus: amyloid nucleation score (Sup35N fusion, yeast selection) (log enrichment); library NNK2; higher = more nucleation; inactive = no reads after selection. An outline of the steps: as §1
The substance YITVSSESAWHYTDQATFDA had an amyloid nucleation score of -0.129 ± 1.1.
On the same count and under the same terms, the value for YIVDGVGCNCHTGSIVEMSL was -0.618 ± 0.32; that for YKETFGIA was -1.36 ± 0.49.
Still for that read-out and setting: the value for YKFLLFFYVDTSYVMLFSGF was -0.887 ± 1.1.
On the same count and under the same terms, the same measure for YKFSPIHNSRCLNSLHWPKA: 0.439 ± 0.74; for YKSYSNPVLHHYSSLIPGPN: -0.001 ± 0.41; for YKVNWG: 0.854 ± 0.47.
Consider YKVQTLDAPNYRFIGVFVRS, for which the amyloid nucleation score was -0.711 ± 1.1.
YKWWCSW yielded an amyloid nucleation score of -0.62 ± 0.76.
YLACFTARL showed an amyloid nucleation score of 3.91 ± 0.049.
The same measure, in the same setting: the value for YLFFKFWNAVCDLIHNTNLY was “inactive”; that for YLGMLYFLVASHASDFATYW was 4.16 ± 0.051; that for YLGVSSCLMSSSGRSLASTL was 4.39 ± 0.09.
The same measure, in the same setting: the same measure for YLHLSQTQWLGLIFNRRSFD: 3.62 ± 0.068.
On the same count and under the same terms, the value for YLKMALVMIMYVITYRSTVG was 1.65 ± 0.31; that for YLLFEWHYRHTYRCLVRVGA was -0.166 ± 0.76.
YLLLNYQACTMLDWNWVWVW came in with an amyloid nucleation score of 5.31 ± 0.071.
In turn, YLMSFGPWGNYYFRSCKLWL came in with an amyloid nucleation score of 6.42 ± 0.082.
Regarding YLNVNNSQDNESAYVFDKVV, the amyloid nucleation score is 0.058 ± 0.74.
For the substance YLPPNKNWFFVWVDFSSWVF, the amyloid nucleation score was -0.627 ± 0.61.
On the same count and under the same terms, the value for YLRTCI was -0.084 ± 0.49; that for YLRTFAKYWNPNARQLSIMR was “inactive”; that for YLSDNHYWCWSYESF was -0.725 ± 0.41.
In turn, YLWDRSATRS displayed an amyloid nucleation score of 0.605 ± 0.29.
Still for that read-out and setting: the same measure for YMADSPLELDSSMTDYLCPV: 4.18 ± 0.069; for YMSVSSKGQRVCFTT: -0.488 ± 0.63; for YMTVLLMSVFNWSQSRRPP: 3.55 ± 0.077.
Same read-out and setting: the value for YMVLSHVVQPFNHLGISWPC was “inactive”; that for YMYLTCSLGSVCRFLSEHMW was -0.605 ± 0.36; that for YNARFSTNLTRFGVGF was -1.15 ± 1.1.
Take YNCLRMELVLSHKGDLTLM: the amyloid nucleation score amounted to 5.25 ± 0.091.
On the same count and under the same terms, the value for YNIFPIISLITRNK was 6.42 ± 0.064.
Turning to YNKGPLTGMFYMEGASVNIC, the amyloid nucleation score entry was “inactive”.
Same read-out and setting: the same measure for YNLYHSCLDQRTYHSGKFSI: 2.3 ± 0.14; for YNSCSYEIILGDFLWLLTGQ: 0.624 ± 0.2; for YNSTALKVSWRVRLGPWNWI: -0.06 ± 1.1.
The same measure, in the same setting: the same measure for YNSVVADKWCSFSK: 0.155 ± 1.1; for YNYPSVNIRLKIDLAGSLGC: 2.65 ± 0.097.
YNYWMQSLGSWVEVLSSVSV came in with an amyloid nucleation score of -0.365 ± 0.5.
On the same count and under the same terms, the same measure for YPCVMFFPEPGEYCLVYRC: -0.608 ± 1.1.
The same measure, in the same setting: the value for YPNRFINTCFVRCNISLNNY was 8.485 ± 0.061; that for YPSCKGSMPVFYSFPGGENA was 0.524 ± 0.5.
On the same count and under the same terms, the value for YRACCVYNLGEVEWGVWVVC was -0.31 ± 0.21.
On to YRARKASLTDVSSSVKVNMS, for which the amyloid nucleation score is -0.026 ± 0.63.
YRFRSLSM displayed an amyloid nucleation score of -1.14 ± 0.4.
The same measure, in the same setting: the value for YRILVNFAVVSMVRINRSFW was -1.48 ± 0.78; that for YRLYHILECSGVMMS was -1.01 ± 0.44.
On the same count and under the same terms, the value for YRPNN was 2.43 ± 0.14.
The same measure, in the same setting: the same measure for YRPRDCISRVTYMRTVIVIL: -0.121 ± 1.1; for YRQMIRDYWIEKQSLHIRAD: 0.27 ± 0.56; for YRRGRLSMRSVWTKGCKERM: “inactive”.
Regarding YRVFRFCNMASYLVSICHNG, the amyloid nucleation score is -1.2 ± 0.64.
On the same count and under the same terms, the value for YSFAMLGGQESRMSMCCGER was 0.791 ± 0.32; that for YSFCWLYNYPFIFYGFAFED was 5.951 ± 0.056; that for YSFLHVIGANKFARACNNWS was -0.565 ± 0.78.
On the same count and under the same terms, the same measure for YSFMS: -0.458 ± 0.27; for YSFYAKSW: “inactive”.
The same measure, in the same setting: the value for YSGFI was “inactive”; that for YSGFLRCLAYALI was 0.061 ± 0.8.
The substance YSGTWLMVHKNLMVRKKLVP gave an amyloid nucleation score of 0.499 ± 0.38.
The substance YSLCTTPMRAWVSYVFDVR registered an amyloid nucleation score of -1.04 ± 0.64.
The same measure, in the same setting: the same measure for YSLVRIFDGVWITRDSCNIL: “inactive”.
Take YSLYEYFKSHLRKACVMPGW: the amyloid nucleation score result was “inactive”.
On the same count and under the same terms, the same measure for YSNRLYFVLEAVVYL: 1.41 ± 0.32; for YSPSRVS: -0.493 ± 0.48; for YSRVILFHNGQMGVVMVPRW: “inactive”.
On to YSSAGDVMLNRQLDGCWLTR, for which the amyloid nucleation score is -0.006 ± 0.53.
The same measure, in the same setting: the same measure for YSSFFHFRVCNLCRWGSVSN: 0.121 ± 0.18; for YSSMGDNSRVRSFFVAVAGG: “inactive”; for YSTEPSRHGIWNG: -0.735 ± 0.56.
On the same count and under the same terms, the value for YSVFNTSNFSALDPRFRRLF was 0.201 ± 0.8.
For YSVYKTLA, the amyloid nucleation score was -1.51 ± 0.78.
YSWVGLCPLIGRLYTGFAN showed an amyloid nucleation score of -1.71 ± 0.54.
Same read-out and setting: the same measure for YSWWW: 1.15 ± 0.66; for YTAIVRFWWVTQSVQFKNRD: -0.143 ± 0.8.
On the same count and under the same terms, the value for YTEQVYVYLGFLSHGASRYL was -0.716 ± 1.1.
Same read-out and setting: the same measure for YTISSIVVLDMFS: 1.41 ± 0.21.
In turn, YTKSQGAFT gave an amyloid nucleation score of -0.135 ± 0.65.
The substance YTLFYARNLSSMDVICN gave an amyloid nucleation score of -1.09 ± 0.76.
Consider YTNHSLNMHLWCRNS, for which the amyloid nucleation score result was “inactive”.
The same measure, in the same setting: the value for YTRLYFNEHDFYFFVGIMT was “inactive”; that for YTRSYGPFPSHLVNLARNLS was -0.905 ± 0.32; that for YTTNIF was -0.793 ± 0.49.
On the same count and under the same terms, the value for YTVWEEYHRAKSSGLT was 1 ± 0.33; that for YTYSYATLNMWFQLT was 6.59 ± 0.033.
Still for that read-out and setting: the value for YVATKYMRLNTCNLFWGGLT was 6.368 ± 0.05; that for YVATVWPLQSKRLSHRLMNG was 0.695 ± 0.43.
The substance YVCFQFFDTC gave an amyloid nucleation score of 8.406 ± 0.038.
Still for that read-out and setting: the same measure for YVCGRENILFFERLKS: -0.327 ± 0.45; for YVCGWINVLG: -0.661 ± 0.63.
On the same count and under the same terms, the same measure for YVDWVNRTFQWFTGDVDDPV: -0.107 ± 0.39; for YVGGTVGV: -0.807 ± 0.64.
Same read-out and setting: the value for YVHVNIRYFYSLGDAVDKMP was 4.86 ± 0.11; that for YVLGVF was 0.045 ± 0.79.
Regarding YVLPLPGNLNIMEAAGRYYA, the amyloid nucleation score was found to be 4.04 ± 0.057.
The same measure, in the same setting: the value for YVMSAVFYSVRFVAIETCKV was 0.155 ± 0.57; that for YVNNLGRFCLLYRPWGMVNS was -0.196 ± 1.1; that for YVQVFRSLDYNHHAKS was -0.508 ± 0.39.
Same read-out and setting: the same measure for YVRYGP: -0.289 ± 0.26.
On the same count and under the same terms, the same measure for YVSDYG: 0.199 ± 0.8.
The substance YVSEQTHPMVIMYHFLRQHQ registered an amyloid nucleation score of -0.181 ± 0.5.
Substance YVSLNQRVNFA displayed an amyloid nucleation score of -1.47 ± 0.76.
On the same count and under the same terms, the value for YVSSVAIAFGLSVGLAYYPP was 5.26 ± 0.059; that for YVYWWTYERMVSWSIYCVNT was 2.96 ± 0.097; that for YWKVFFKAGWVVQSSAGMSA was 4.64 ± 0.068.
Same read-out and setting: the same measure for YWTGGLHNEHLSMHVSVYSN: -0.527 ± 1.1.
The same measure, in the same setting: the same measure for YWVGIDRHFHGRQYCKAGA: 1.11 ± 0.45.
In the case of YWYWWSSWY, the amyloid nucleation score stood at 1.6 ± 0.29.
For YYEYGL, the amyloid nucleation score is -0.298 ± 0.4.
On the same count and under the same terms, the same measure for YYGQSPALDRR: -0.238 ± 0.45; for YYIAI: -0.619 ± 1.
YYINVDQESGSWMRTSVKGA registered an amyloid nucleation score of 0.207 ± 0.41.
Same read-out and setting: the same measure for YYKFTVCWMYYLYQKSRTLL: -1.15 ± 0.78; for YYLSNPRGVHISIYREHNMS: 6.392 ± 0.043; for YYLVV: -0.614 ± 0.56.
The same measure, in the same setting: the value for YYMKFEAILKDQWSTVYN was “inactive”; that for YYMLVYWDV was 0.56 ± 0.44; that for YYSISGISFWFSK was 8.381 ± 0.06.
Still for that read-out and setting: the value for YYVDVLESISSGMFLYSQLV was -1.95 ± 0.54; that for YYYVTCSILPLFYFEKGLAL was 5.711 ± 0.037.

Source of the values: the supplement of paper PMC12042874.
